The term Kd denotes a measure of binding affinity in units of concentration.

Our source for the Kd values is publication PMC9992173, “Mapping of the extracellular RBP4 ligand binding domain on the RBPR2 receptor for Vitamin A transport” (Frontiers in Cell and Developmental Biology, 2023).

This assay has as its target T1, Recombinant mouse RBP4 with 6XHis Tag (mouse, UniProt Q00724 19-201).
T1 construct: Amine-coupled to a CM5 chip for SPR; also called msRBP4; source: E. coli expression system, purified (nickel NTA column)
Nature of the assay: SPR; mouse RBP4 amine-coupled to a CM5 chip (target 1,200 RU), Biacore S200; peptides as analytes, 0.8-26.6 uM; running buffer PBST (0.05% Tween20); 25 C; contact 120 s, dissociation 300 s; Kd from the site-specific binding fit Y=(Bmax*X)/(Kd+X). The following applies: both partners purified.

B1: zebRBPR2 (34) peptide (peptide)
peptide: DKLDSLKDSLEQIALSCNQTESVFTYLIPSINEF
notes: zebrafish RBPR2 peptide of 34 residues; also called zebrafish RBPR2 peptide; source: synthetic peptide (Biomatik Corporation)
Take B1: the Kd came to 33.2 µM.

B2: msRbpr2 (42) peptide (peptide)
peptide: HVRDKLDMFEDKLESYLTHMNETGTLTPIILQVKELISVTKG
notes: mouse RBPR2 (STRA6like) peptide of 42 residues with the SYL residues S294, Y295, L296; also called WT-msRBPR2 peptide; mouse RBPR2 peptide; source: synthetic peptide (Biomatik Corporation)
Regarding B2, the Kd was 25.4 µM.

B3: msStra6 (40) peptide (peptide)
peptide: SVVPTVQKVRAGINTDVSYLLAGFGIVLSEDRQEVVELVK
notes: mouse STRA6 peptide of 40 residues with Tyr336, Gly340 and Gly342; also called msSTRA6 peptide; mouse STRA6 peptide; source: synthetic peptide (Biomatik Corporation)
With B3, the Kd worked out at 26.7 µM.
